Test system: CCCCCCCCCCCCCCCC(=O)Oc1ccc([N+](=O)[O-])cc1
Test: initial-rate hydrolysis of pNPP, p-nitrophenol release, Michaelis-Menten fit
Format: biochemical, Thermomyces lanuginosus
Details: 37 °C, pH 9.0, Tris-HCl 100 mM, apparent Km, pNPP 0.25-10 mM
Source text: initial-rate hydrolysis of pNPP, p-nitrophenol release, Michaelis-Menten fit on TLL (Thermomyces lanuginosus lipase)

## TLL (Thermomyces lanuginosus lipase) (Thermomyces lanuginosus; A52P)
  Km: 240 ± 20 µM
  Vmax: 503 µmol/min/mg
  kcat: 1036 ± 4 s⁻¹
  kcat/Km: 4.383e+06 ± 42000 M⁻¹ s⁻¹

## TLL (Thermomyces lanuginosus lipase) (Thermomyces lanuginosus; D49N)
  Km: 220 ± 20 µM
  Vmax: 396 µmol/min/mg
  kcat: 777 ± 5 s⁻¹
  kcat/Km: 3.503e+06 ± 31000 M⁻¹ s⁻¹

## TLL (Thermomyces lanuginosus lipase) (Thermomyces lanuginosus; D49R)
  Km: 360 ± 10 µM
  Vmax: 828 µmol/min/mg
  kcat: 1900 ± 21 s⁻¹
  kcat/Km: 5.24e+06 ± 118000 M⁻¹ s⁻¹

## TLL (Thermomyces lanuginosus lipase) (Thermomyces lanuginosus; K46S)
  Km: 310 ± 20 µM
  Vmax: 681 µmol/min/mg
  kcat: 1380 ± 22 s⁻¹
  kcat/Km: 4.48e+06 ± 157000 M⁻¹ s⁻¹

## TLL (Thermomyces lanuginosus lipase) (Thermomyces lanuginosus; P51S)
  Km: 290 ± 30 µM
  Vmax: 668 µmol/min/mg
  kcat: 1354 ± 9 s⁻¹
  kcat/Km: 4.747e+06 ± 28000 M⁻¹ s⁻¹

From paper PMC10706272, “Improving the Thermostability of Thermomyces lanuginosus Lipase by Restricting the Flexibility of N-Terminus and C-Terminus Simultaneously via the 25-Loop Substitutions” (International Journal of Molecular Sciences, 2023)
